Source: patent US20220389113A1, “BINDING PROTEINS TO CUB DOMAIN-CONTAINING PROTEIN (CDCP1)” (COMMONWEALTH SCIENTIFIC AND INDUSTRIAL RESEARCH ORGANISATION, priority 2019, published 2022)

How the values were obtained:
Format in all cases: cell-based, human
[1] = system: p-CDCP1-Y734 in HEY cells; assay: Western blot of CDCP1-Y734 and Src-Y416 phosphorylation in HEY cells; settings: 5 μg/ml
Description: Cells were biotinylated (4° C., 1 h) with cell-impermeant EZ-link NHS-SS Biotin (1.22 mg/ml; Thermo) then PBS washed and lysed in buffer containing 20 mM HEPES, 150 mM NaCl, 1 mM EDTA, 1% Triton X-100, 1×Complete protease inhibitor cocktail (PIC) and phosphatase inhibitors (2 mM Na3VO4, 10 mM NaF). After centrifugation the supernatant was incubated (15 minutes, 4° C.) with ImmunoPure immobilized streptavidin beads (Thermo). After pelleting, the supernatant containing intracellular proteins was transferred to a separate tube, and the beads washed in lysis buffer containing PIC and phosphatase inhibitors. Lysates and proteins separated by cell surface biotinylation (40 μg/lane) were examined by Western blot analysis as described (He Y, et al., (2016) Oncogene. 35(4):468-78).
Since Src tyrosine phosphorylation is important in CDCP1-mediated signal transduction (Casar B, et al., (2012) Oncogene. 31(35):3924-38), the inventors next examined this in antibody induced processing of CDCP1. […] Live-cell images of the four cell lines were analysed to determine the distance moved (track length) by individual CDCP1^GFP positive puncta during mAb-induced internalization (FIG. 5C, left). […]

OVMZ6 cells = assay: Colony formation assay, OVMZ6 cells; settings: even at the highest concentration
Description: MMAE-conjugated 10D7 and IgG1K were prepared as described (Nielsen C F, et al., (2017) Oncotarget. 8(27):44605-24.53) and drug-antibody ratio (DAR) determined by reverse phase LC/MS as reported (Basa L. et al., (2013) Methods Mol Biol. 1045:285-93.) on an ABSCIEX Triple TOF spectrometer (AB SCIEX Framingham, Mass.) coupled to a Shimadzu Nexera 1D UHPLC system (Shimadzu, Rydalmere, Australia). ADC peak identification was performed as reported with DAR determined by peak area integration (Hamblett K J, et al., (2004) Clin Cancer Res. 10(20):7063-70; Yao X, et al., (2015) Breast Cancer Res Treat. 153(1):123-33). Colony-formation assays were performed as described (Crowley L C, et al., (2016) Cold Spring Harb Protoc. 2016(8):pdb.prot087171) on cells (100,000/ml) treated with the indicated concentrations of 10D7, 10D7-MMAE, IgG or IgG-MMAE overnight before being lifted and replated in 24-well plates (200 cells/well). After a defined growth period media was removed and cells gently PBS washed before staining with 0.1% crystal violet (Sigma-Aldrich) in 2% ethanol. After 20 minutes and stained cells were scanned (700 nm) on a LiCOR System (Odyssey V3.0 software) with images analyzed using the ColonyArea ImageJ plugin to quantify colony area and intensity (Guzmán C, et al., (2014) PLoS One. 9(3):e92444.). […]

PANC-1 cells = assay: Survival assay with cytotoxin-conjugated antibodies, PANC-1; settings: PANC-1, 1 μg/ml, 12 h treatment then 72 h growth
Description: (§1) The relative number of viable cells was then measured by adding the CellTiter AQueous One Solution Reagent to each well and measuring absorbance at 490 nm as described above. […] Cells were imaged by wide-field fluorescence microscopy and the total area of confluence for each cell type was quantified by image analysis using Image J software.

TKCC02 cells = assay: Survival assay with cytotoxin-conjugated antibodies, TKCC02; settings: TKCC02, 1 μg/ml, 12 h treatment then 72 h growth
Description: as §1

B1: 10D7-MMAE (conjugate)
VH: EVQLQQFGAELVKPGASVKISCKASGYSFSDFNIEWLKQSHGKSLEWIGDINPNYDSTNYNQKFKGRATLTVDKSSSTAYMEVRSLTSEDTAVYYCARLGYGYAMDYWGQGTSVTVSS
VL: NIVMTQSPQSMSMSVGERVTLSCKASENVGAYVSWFQQKPDQSPKLLILAASNRYTGVPARFIGSGSATDFTLTISSVQAEDLADYHCGQSYTYPYTFGGGTKLEIKRADAAPTVS
In the case of B1, the “time to phosphorylation of CDCP1-Y734 and Src-Y416” value [1] is reported as ≤ 1 h, the colony formation (OVMZ6 cells) is reported as “unaffected” and the survival of cells (PANC-1 cells) is reported as “about 20%”. For the same molecule, the survival of cells (TKCC02 cells) was “about 25%”.
